According to PMC4316771:

Columns and labels:
[1] = biological target: FcRn-p3 (human FcRn fused to the amino terminal part of the bacteriophage p3 protein and the CVDE protein) (human) (UniProt P55899); test: ELISA; phage-ELISA at pH 6.0: FcRn-p3 coated on Maxisorp plates (0.25 μg/well); phage-Fc supernatants diluted 1/2 and 1/4 in P6 (100 mM sodium phosphate, 50 mM NaCl, pH 6.0) with 5% skimmed milk and 0.1% Tween-20; 2 h at 37°C; bound phages detected with HRP anti-M13 antibody; results as ratios of signals
[2] = biological target: soluble human FcRn (human) (UniProt P55899); test: SPR; BIAcore X100, CM5 chip, recombinant human FcRn immobilised; IgG 1-200 nM flowed at 10 μl/min, 25°C, 50 mM sodium phosphate pH 6.0, 150 mM NaCl, 0.02% NaN3, 0.01% Tween-20; steady-state affinity model
human complement C1q = test: ELISA; C1q (0.5 μg/well) or FcγRIIIA-V158 (0.1 μg/well) coated on Maxisorp plates, FcγRIIA-R131 (0.1 μg/well) or FcγRIIB (0.4 μg/well) on nickel chelate plates; IgG in HEK293-F supernatants aggregated with HRP F(ab')2 goat anti-human F(ab')2, 0.5 μg/ml (0.25 μg/ml for FcγRIIIA-V158) in PBS, 1 h at 30°C; results as ratio variant/WT
[3] = biological target: human FcγRIIA-R131 (human); test: as above
[4] = biological target: human FcγRIIIA-V158 (human); test: as above
human FcγRIIB (human) = human FcγRIIB (human) (UniProt P31994); test: as above
[5] = biological target: FcRn-p3 (human FcRn fused to the amino terminal part of the bacteriophage p3 protein and the CVDE protein) (human) (UniProt P55899); test: ELISA; FcRn-p3 (0.1 μg/well) coated on Maxisorp plates in P6 (pH 6.0); IgG in HEK293-F supernatants aggregated with HRP F(ab')2 goat anti-human F(ab')2, diluted in P6 to 0.0375 μg/ml, 1 h at 30°C; results as ratio variant/WT

UniProt P31994, sequence (P31994 43-217): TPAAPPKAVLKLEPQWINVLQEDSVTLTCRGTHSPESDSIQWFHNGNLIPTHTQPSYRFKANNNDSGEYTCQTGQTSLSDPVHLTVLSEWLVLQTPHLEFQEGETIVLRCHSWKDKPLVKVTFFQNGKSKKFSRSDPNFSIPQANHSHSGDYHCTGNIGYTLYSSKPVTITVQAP

| Substance | phage-ELISA ratio/Fc-WT [1] | Kd [2] [nM] | ELISA ratio variant/WT (human complement C1q) | ELISA ratio variant/WT [3] | ELISA ratio variant/WT [4] | ELISA ratio variant/WT (human FcγRIIB (human)) | ELISA ratio variant/WT [5] |
| --- | --- | --- | --- | --- | --- | --- | --- |
| Fc variant Fc-QL (phage-displayed Fc 226-447) (domain or fragment) | 3.2 |  |  |  |  |  |  |
| Fc variant Fc-YTE (phage-displayed Fc 226-447) (domain or fragment) | 3.5 |  |  |  |  |  |  |
| anti-CD20 IgG1 IgG-WT (produced in YB2/0 cells) (antibody) |  | 101 |  |  |  |  |  |
| anti-CD20 IgG1 variant IgG-LS (produced in HEK293-F cells) (antibody) |  |  | 2.39 | 2.52 | 1.3 | 0.97 | 4.46 |
| anti-CD20 IgG1 variant IgG-QL (produced in HEK293-F cells) (antibody) |  |  | 2.47 | 0.99 | 0.59 | 0.95 | 2.39 |
| anti-CD20 IgG1 variant IgG-YTE (produced in HEK293-F cells) (antibody) |  |  | 0.64 | 0.27 | 0.27 | 0.42 | 2.06 |
